From patent US20140010817A1 (Daiichi Sankyo, published 2014) come the findings set out here.

Numbering of substitutions follows the chain as printed.

Assay [1] addresses T1, RX protein purified from the culture supernatant of ADSF cells (murine mammary tumor virus (MMTV) …, UniProt P03374 99-474; P03374 475-651).
T1 construct: also called purified RX protein; ADSF cell-derived RX protein
The experiment in a line: SPR (ProteOn XPR36), antibody immobilized by amine coupling, RX protein as analyte.
Source text: (§1) Each antibody was immobilized on a sensor chip (Sensor Chip GLM; Bio-Rad Laboratories, Inc.) by the amine coupling method. The chip was blocked by the addition of 1 M ethanolamine hydrochloride (pH 8.5). ProteOn PBS/Tween, pH 7.4 (PBS, pH 7.4, 0.005% Tween 20) was used as a running buffer solution. The purified RX protein was serially diluted and interacted as an analyte with the immobilized monoclonal antibody to determine the binding affinity. The association rate constant ka and the dissociation rate constant kd were calculated by kinetics analysis using ProteOn Manager™.

Assay [2] concerns the target T1, RX protein purified from the culture …. Briefly: SPR (ProteOn XPR36), antibody immobilised by amine coupling on a GLM chip, purified RX protein as analyte.
Source text: as §1
The target is the same in assay [3]. Briefly: SPR.
Assay [4] shares this target. Briefly: SPR (ProteOn XPR36) by the method of Example 4: antibody immobilized, RX protein as analyte.
Source text: as §1
The target is the same in assay [5]. Briefly: SPR (ProteOn XPR36), humanized MAb1 captured on immobilised Protein A/G, RX protein as analyte.
Procedure: Specifically, a Protein A-Protein G fusion protein Protein A/G (Thermo Fisher Scientific K.K.) was immobilized on the GLM sensor chip of ProteOn XPR36 (Bio-Rad Laboratories, Inc.) by the amine coupling method. […] The dissociation constant, i.e., binding affinity, was calculated from the ratio therebetween.

B1: Monoclonal Antibody 3 (MAb3) (antibody, V domains shown)
VH: QVKLEESGGGLVKPGGSLKLSCAASGFSFSRNVMSWVRQTPEKRLEWVATISAGGSYTYYPDSVKGRFTISRDNAKNTLYLQMSSLRSEDTAMYYCARLNYNDNGNYFDYWGQGTTLTVSS
VL: DIVMTQSTAIMSASLGEKVTMSCRASSSVVYMYWYQQKSDASPKLWIYYTSNLAPGVPARFSGSGSGNSYSLTISSMEGEDAATYYCQQFTSSPYTFGGGTKLEIKR
B1 returned a Kd in assay [1] of about 0.1 nM. In addition, in assay [2], binding was put at a Kd of 0.62 nM, the koff was 0.0017 s⁻¹ and the kon came out at 2.8e+06 M⁻¹ s⁻¹.

B2: Monoclonal Antibody 1 (MAb1) (antibody)
heavy: EVQLVESGGGLVQPGRSLKLSCVGSGFTFSDYYMAWVRQAPKKGLEWVASISYEGSNTNFGDSVKGRFTISRDSAKSTLYLQMNSLRSEDTATYYCARWAQTGYYFDYWGQGVMVTVSSAETTAPSVYPLAPGTALKSNSMVTLGCLVKGYFPEPVTVTWNSGALSSGVHTFPAVLQSGLYTLTSSVTVPSSTWSSQAVTCNVAHPASSTKVDKKIVPRECNPCGCTGSEVSSVFIFPPKTKDVLTITLTPKVTCVVVDISQNDPEVRFSWFIDDVEVHTAQTHAPEKQSNSTLRSVSELPIVHRDWLNGKTFKCKVNSGAFPAPIEKSISKPEGTPRGPQVYTMAPPKEEMTQSQVSITCMVKGFYPPDIYTEWKMNGQPQENYKNTPPTMDTDGSYFLYSKLNVKKETWQQGNTFTCSVLHEGLHNHHTEKSLSHSPGK
light: DIQMTQSPASLSASLGETVTIECLASEDIYSNLAWYQQKPGKSPQLLIYYANSLNDGVPSRFSGSGSGTQFSLKINSLQSEDVSIYFCQQNYDSPYTFGAGAKLELKRADAAPTVSIFPPSTKQLATGGASVVCLMNNFYPRDISVKWKIDGTERRDGVLDSVTDQDSKDSTYSMSSTLSLTKADYESHNLYTCEVVHKTSSSPVVKSFNRNEC
notes: also called rat antibody MAb1; recombinant MAb1
In the case of B2, the figures for the dissociation constant (Kd) in assay [1] and in assay [2] were about 0.1 nM and 0.16 nM, respectively.

B3: chimerized MAb1 (rat-human chimeric antibody) (antibody, V domains shown)
VH: EVQLVESGGGLVQPGRSLKLSCVGSGFTFSDYYMAWVRQAPKKGLEWVASISYEGSNTNFGDSVKGRFTISRDSAKSTLYLQMNSLRSEDTATYYCARWAQTGYYFDYWGQGVMVTVSS
VL: DIQMTQSPASLSASLGETVTIECLASEDIYSNLAWYQQKPGKSPQLLIYYANSLNDGVPSRFSGSGSGTQFSLKINSLQSEDVSIYFCQQNYDSPYTFGAGAKLELKRA
B3 returned a Kd in assay [3] of 0.22 nM.

B4: Monoclonal Antibody 4 (MAb4) (antibody, V domains shown)
VH: QVKLEESGAELVKPGASVKMSCKASGYTFTIYNIHWVKQTPRQGLEWIGTIFPVNGDTSYNQRFKGKATLTADKSSNTAYMQLSGLTSEDSALYYCARSTTARAWFPYWGQGTLVTVSA
VL: HIVITQTQKFMSTSVGDRVSVTCKASQNVGSNVAWYQQKPGQSPKVLIYSASYRYSGVPDRFTGSGSGTDFTLTISNVQSEDLADFFCQQYNTSPFTFGGGTKLEIK
With B4, in assay [4], binding was characterised by a dissociation constant (Kd) of 0.14 nM.

B5: Monoclonal Antibody 2 (MAb2) (antibody, V domains shown)
VH: EVKLQESGPELKKPGETVKISCKASGYTFRDYPIHWVKQAPGKGLKWMGWINTETGEPTYADDFKGRFAFSLETSANTTYLQINNLKNEDTATYFCTPRFTYWGQGTLVTVSS
VL: DIVMTQTPSSLAVSVGEKVTMSCKSSQNLLYSGNQKNYLAWFQQKPGQSPKLLIYWASTRESGVPDRFTGSGSGTDFTLTLSSVKAEDLAVYYCQQSYRYPYTSGGGTKLEIKR
For B5, the dissociation constant Kd in assay [1] was about 0.1 nM. Moreover, in assay [2], the Kd amounted to 0.26 nM, the koff was determined as 0.00021 s⁻¹ and the kon was found to be 810000 M⁻¹ s⁻¹.

B6: humanized antibody T14 (antibody, V domains shown)
VH: EVQLVESGGGLVQPGRSLRLSCAASGFTFSDYYMAWVRQAPGKGLEWVASISYEGSNTNFGDSVKGRFTISRDSSKNTLYLKMNSLRAEDTAVYYCARWAQTGYYFDYWGQGTLVTVSS
VL: DIQMTQSPSSLSASVGDRVTITCLASEDIYSNLAWYQQKPGKSPKLLIYYANSLNDGVPSRFSGSGSGTDFTLTISRLQPEDFATYYCQQNYDSPYTFGQGTKVEIKR
notes: also called humanized MAb1 (H5/L2)
In turn, B6 yielded a Kd in assay [5] of 0.19 nM.

B7: humanized antibody T17 (antibody, V domains shown)
VH: B6 VH with A24G, S74N
VL: B6 VL with R77S
notes: also called humanized MAb1 (H6/L5)
Molecule B7 yielded a Kd in assay [5] of 2 nM.

B8: humanized antibody T2 (antibody, V domains shown)
VH: B6 VH with A49S, S74N
VL: B6 VL
notes: also called humanized MAb1 (H1/L2)
In assay [5], B8 registered a dissociation constant Kd of 1.9 nM.

B9: humanized antibody T1 (antibody, V domains shown)
VH: B6 VH with A49S, S74N
VL: B6 VL with S43A
notes: also called humanized MAb1 (H1/L1)
In assay [5], B9 had a dissociation constant (Kd) of 2.5 nM.

B10: humanized antibody T8 (antibody, V domains shown)
VH: B6 VH with A24G
VL: B6 VL with S43A
notes: also called humanized MAb1 (H3/L1)
In the case of B10, the affinity in assay [5], expressed as Kd, was 0.17 nM.

B11: humanized antibody T3 (antibody, V domains shown)
VH: B6 VH with A49S, S74N
VL: B6 VL with K45Q, Y87F
notes: also called humanized MAb1 (H1/L3)
As for B11, in assay [5], the Kd turned out to be 2.5 nM.

B12: humanized antibody T19 (antibody)
heavy: not shown
light: DIQMTQSPSSLSASVGDRVTITCLASEDIYSNLAWYQQKPGKAPKLLIYYANSLNDGVPSRFSGSGSGTDFTLTISRLQPEDFATYYCQQNYDSPYTFGQGTKVEIKRTVAAPSVFIFPPSDEQLKSGTASVVCLLNNFYPREAKVQWKVDNALQSGNSQESVTEQDSKDSTYSLSSTLTLSKADYEKHKVYACEVTHQGLSSPVTKSFNRGEC
notes: also called humanized MAb1 (H8/L1)
In assay [5], B12 yielded a dissociation constant (Kd) of 0.69 nM.

B13: humanized antibody T9 (antibody, V domains shown)
VH: B6 VH with A24G
VL: B6 VL
notes: also called humanized MAb1 (H3/L2)
In turn, B13 gave a dissociation constant (Kd) in assay [5] of 0.25 nM.

B14: humanized antibody T15 (antibody, V domains shown)
VH: B6 VH
VL: B6 VL with R77S
notes: also called humanized MAb1 (H5/L5)
For B14, the Kd in assay [5] is 0.26 nM.

B15: humanized antibody T4 (antibody, V domains shown)
VH: B6 VH with S74N
VL: B6 VL with S43A
notes: also called humanized MAb1 (H2/L1)
As to B15, in assay [5], the equilibrium dissociation constant (Kd) came out at 2 nM.

B16: humanized antibody T18 (antibody, V domains shown)
VH: B6 VH with A24G, K82Q
VL: B6 VL
notes: also called humanized MAb1 (H7/L2)
For the molecule B16, the Kd in assay [5] came out at 0.22 nM.

B17: humanized antibody T10 (antibody, V domains shown)
VH: B6 VH with A24G
VL: B6 VL with K45Q, Y87F
notes: also called humanized MAb1 (H3/L3)
B17 gave a Kd in assay [5] of 0.47 nM.

B18: humanized antibody T16 (antibody, V domains shown)
VH: B6 VH with A24G, S74N
VL: B6 VL
notes: also called humanized MAb1 (H6/L2)
Molecule B18 had a Kd in assay [5] of 1.9 nM.

B19: humanized antibody T12 (antibody, V domains shown)
VH: B6 VH with A24G, S75A
VL: B6 VL with K45Q, Y87F, V104L
notes: also called humanized MAb1 (H4/L4)
B19: the dissociation constant Kd in assay [5] came out at 0.32 nM.

B20: humanized antibody T6 (antibody, V domains shown)
VH: B6 VH with S74N
VL: B6 VL with K45Q, Y87F
notes: also called humanized MAb1 (H2/L3)
B20 showed a dissociation constant Kd in assay [5] of 2 nM.

B21: humanized antibody T11 (antibody, V domains shown)
VH: B6 VH with A24G
VL: B6 VL with R77S
notes: also called humanized MAb1 (H3/L5)
B21 showed a dissociation constant Kd in assay [5] of 0.37 nM.

B22: humanized antibody T21 (antibody)
heavy: not shown
light: B12 light
notes: also called humanized MAb1 (H10/L1)
In assay [5], B22 registered a Kd of 0.42 nM.
